To fix the notation:
B1: CPEB3 Ribozyme (parent)
chain: GGGGGCCACAGCAGAAGCGUUCACGUCGCGGCCCCUGUCAGAUUCUGGUGAAUCUGCGAAUUCUGCUGU

In the data set the parent is B1. In words: self-cleavage, relative activity (ratio to wild type); higher = more cleavage; co-transcriptional.
GGGGGCCACAGCUGAAGCGUUCACGUCGCGGCCCCUGUCAGAUUCUGGUGAAUCUGCGACUUCUGCUGU [A13U A60C]: the self-cleavage is 0.318.
On to GGGGGCCACAGCGGAAGCGUUCACGUCGCGGCCCCUGUCAGAUUCUGGUGAAUUUGCGAAUUCUGCUGU [A13G C54U], for which the self-cleavage was 0.937.
As to GGGGGCCACAGCGGAAGCGUUCACGUCGCGGCCCCUGUCAGAAUCUGGUGAAUCUGCGAAUUCUGCUGU [A13G U43A], the self-cleavage is 0.617.
The result for GGGGGCCACAGCGGAAGCGUUCACGUCGCGGCCCCUGUCAGAUUCUGGUGAAUCUGCGAAUUCUGCUCU [A13G G68C] reads 0.924.
With GGGGGCCACAGCGGAAGCGUUCACGUCGCGGCCCCUGUCAGAUUCUGGUGAAUCUGCGAAUUCUGCUUU [A13G G68U], the self-cleavage was found to be 0.95.
GGGGGCCACAGCGGAAGCGUUCACGUCGCGGCCCCUGUCAGAUUCUGCUGAAUCUGCGAAUUCUGCUGU [A13G G48C]: the self-cleavage was 0.971.
Consider GGGGGCCACAGCGGUAGCGUUCACGUCGCGGCCCCUGUCAGAUUCUGGUGAAUCUGCGAAUUCUGCUGU [A13G A15U], for which the self-cleavage turned out to be 0.547.
With GGGGGCCACAGCGGAAGCGUUCACGUCGCGGCCCCUGUCACAUUCUGGUGAAUCUGCGAAUUCUGCUGU [A13G G41C], the self-cleavage came out at 0.547.
As for GGGGGCCACAGCGGAAGCGUUCACGUCGCGGCCCCUGUCAUAUUCUGGUGAAUCUGCGAAUUCUGCUGU [A13G G41U], the self-cleavage stood at 0.583.
Turning to GGGGGCCACAGCGGAAGCGUUCACGUCGCUGCCCCUGUCAGAUUCUGGUGAAUCUGCGAAUUCUGCUGU [A13G G30U], the self-cleavage is 0.241.
As to GGGGGCCACAGCGGAAGCGUUCACGUCGCGGCUCCUGUCAGAUUCUGGUGAAUCUGCGAAUUCUGCUGU [A13G C33U], the self-cleavage was found to be 0.946.
Take GGGGGCCACAGCGGAAGCGUUCACGUCGCGGCACCUGUCAGAUUCUGGUGAAUCUGCGAAUUCUGCUGU [A13G C33A]: the self-cleavage was 0.942.
For GGGGGCCACAGCGGAAGCGUUCACGUCGCGGCCCCUGUAAGAUUCUGGUGAAUCUGCGAAUUCUGCUGU [A13G C39A], the self-cleavage is 0.602.
As for GGGGGCCACAGCGGAAGCGUUCACGUCGCGGCCCCUGUCAGCUUCUGGUGAAUCUGCGAAUUCUGCUGU [A13G A42C], the self-cleavage came out at 0.647.
As to GGGGGCCACAGCGGAAGCGUUCACGUCGCGGCCCCUGUCAGGUUCUGGUGAAUCUGCGAAUUCUGCUGU [A13G A42G], the self-cleavage was found to be 0.855.
As for GGGGGCCACAGCCGAAGCGUUCACGUCGCGGCCCCUGUCAGAUUCUGGUGAAUCUGCGAAUUCUGCAGU [A13C U67A], the self-cleavage is 0.783.
For the variant GGGGGCCACAGCCGAAGCGUUCACGUCGCGGCCCCUGUCAGAUUCUGGUGAAUCUGCGAAUUCUGCCGU [A13C U67C], the self-cleavage stood at 0.706.
Regarding GGGGGCCACAGCGGAAGCGUUCACGACGCGGCCCCUGUCAGAUUCUGGUGAAUCUGCGAAUUCUGCUGU [A13G U26A], the self-cleavage came to 0.767.
Regarding GGGGGCCACAGCCGAAGCGUUCACGUCGCGGCCCCUGUCAGAUUCUGGUGAAUCUGCGAAUUCUGCUGA [A13C U69A], the self-cleavage is 0.915.
Take GGGGGCCACAGCCGAAGCGUUCACGUCGCGGCCCCUGUCAGAUUCUGGUGAAUCUGCGAAUUCUGCUGC [A13C U69C]: the self-cleavage was found to be 1.06.
For the variant GGGGGCCACAGCGGAAGCGUUCACGUCGCGGCCCCUGUCCGAUUCUGGUGAAUCUGCGAAUUCUGCUGU [A13G A40C], the self-cleavage is 0.306.
Take GGGGGCCACAGCGGACGCGUUCACGUCGCGGCCCCUGUCAGAUUCUGGUGAAUCUGCGAAUUCUGCUGU [A13G A16C]: the self-cleavage came to 0.175.
On to GGGGGCCACAGCGGAGGCGUUCACGUCGCGGCCCCUGUCAGAUUCUGGUGAAUCUGCGAAUUCUGCUGU [A13G A16G], for which the self-cleavage was 0.855.
Turning to GGGGGCCACAGCGGAUGCGUUCACGUCGCGGCCCCUGUCAGAUUCUGGUGAAUCUGCGAAUUCUGCUGU [A13G A16U], the self-cleavage is 0.714.
GGGGGCCACAGCGGAAGCGUUUACGUCGCGGCCCCUGUCAGAUUCUGGUGAAUCUGCGAAUUCUGCUGU [A13G C22U]: the self-cleavage was determined as 0.207.
As to GGGGGCCACAGCGGAAGCGUUAACGUCGCGGCCCCUGUCAGAUUCUGGUGAAUCUGCGAAUUCUGCUGU [A13G C22A], the self-cleavage came to 0.106.
In the case of GGGGGCCACAGCGGAAGCGUUCACGUCGUGGCCCCUGUCAGAUUCUGGUGAAUCUGCGAAUUCUGCUGU [A13G C29U], the self-cleavage is 0.133.
GGGGGCCACAGCCGAAGCGUUCACGUCGCGGCCCCUGUCAGAUUCUGGUGAACCUGCGAAUUCUGCUGU [A13C U53C]: the self-cleavage stood at 0.352.
Regarding GGGGGCCACAGCCGAAGCGUUCACGUCGCGGCCCCUGUCAGAUUCUGGUGAAGCUGCGAAUUCUGCUGU [A13C U53G], the self-cleavage turned out to be 0.63.
Then GGGGGCCACAGCGGAAGCGUUCACGUCGCGGCCCCUGUCAGAUUCUGGUGAAUCUGCGAAUUCUGCGGU [A13G U67G], with 0.897; and GGGGGCCACAGCUGAAGCGUUCACGUCGCGGCCCCUGUCAGCUUCUGGUGAAUCUGCGAAUUCUGCUGU [A13U A42C], with 0.586.
For the variant GGGGGCCACAGCGGAAGCGUUCACGUAGCGGCCCCUGUCAGAUUCUGGUGAAUCUGCGAAUUCUGCUGU [A13G C27A], the self-cleavage came out at 0.425.
For the variant GGGGGCCACAGCGGAAGCGUUCACGUGGCGGCCCCUGUCAGAUUCUGGUGAAUCUGCGAAUUCUGCUGU [A13G C27G], the self-cleavage is 0.137.
In the case of GGGGGCCACAGCGGAAGCGUUCACGUCGCGGCCCCUGUCAGAUUCUGGUGUAUCUGCGAAUUCUGCUGU [A13G A51U], the self-cleavage was 0.905.
GGGGGCCACAGCGGAAGCGUUCACGUCGCGGCCCCUGUCAGAUUCUGGUGGAUCUGCGAAUUCUGCUGU [A13G A51G]: the self-cleavage worked out at 0.843.
Consider GGGGGCCACAGCGGAAGCGUUCACGUCGCGGCCCCUGUCAGAUUCUGGCGAAUCUGCGAAUUCUGCUGU [A13G U49C], for which the self-cleavage is 1.01.
As to GGGGGCCACAGCGGAAGCGUUCACGUCGCGGCCCCUGUCAGAUUCUGGGGAAUCUGCGAAUUCUGCUGU [A13G U49G], the self-cleavage was 0.989.
As for GGGGGCCACAGCGGAAGCCUUCACGUCGCGGCCCCUGUCAGAUUCUGGUGAAUCUGCGAAUUCUGCUGU [A13G G19C], the self-cleavage amounted to 0.13.
In the case of GGGGGCCACAGCGGAAGCGUUCGCGUCGCGGCCCCUGUCAGAUUCUGGUGAAUCUGCGAAUUCUGCUGU [A13G A23G], the self-cleavage worked out at 0.804.
